In the assay the target is human DC-SIGN (human) (UniProt Q9NNX6). Put plainly: cell-based or functional assay.
UniProt Q9NNX6, sequence (Q9NNX6 whole entry): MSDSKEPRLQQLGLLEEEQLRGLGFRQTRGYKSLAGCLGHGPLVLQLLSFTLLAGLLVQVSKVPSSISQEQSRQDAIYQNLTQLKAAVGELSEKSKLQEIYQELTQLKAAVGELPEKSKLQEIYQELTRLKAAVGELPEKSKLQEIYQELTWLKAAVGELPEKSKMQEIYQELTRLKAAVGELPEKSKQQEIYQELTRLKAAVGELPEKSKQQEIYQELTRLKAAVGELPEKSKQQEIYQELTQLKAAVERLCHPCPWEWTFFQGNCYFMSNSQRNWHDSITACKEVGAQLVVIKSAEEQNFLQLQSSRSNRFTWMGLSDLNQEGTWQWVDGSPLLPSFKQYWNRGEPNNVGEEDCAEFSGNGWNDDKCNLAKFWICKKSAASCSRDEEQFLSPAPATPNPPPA

histidine tagged gp120 (gp120-6his): the Internalisation (MFI) DC-SIGN transgenic CD11c+ cells, PBS wash; liposomes engrafted with gp120-6his 27.43 µg/mL, 37 C (unengrafted 74.3) is 118 and the Internalisation (MFI) DC-SIGN transgenic CD11c+ cells, imidazole wash; liposomes engrafted with gp120-6his 27.43 µg/mL, 37 C (unengrafted 77.2) worked out at 126.

In turn, “histidine-tagged FliC (FliC-6his) (from UniProt P06179 2-495) (ligand)” came in with an Internalisation (MFI) DC-SIGN transgenic CD11c+ cells, PBS wash; liposomes engrafted with FliC-6his 23.04 µg/mL, 37 C (unengrafted 74.3) of 70.8 and an Internalisation (MFI) DC-SIGN transgenic CD11c+ cells, imidazole wash; liposomes engrafted with FliC-6his 23.04 µg/mL, 37 C (unengrafted 77.2) of 79.2.

The record behind these values is patent publication US20180185464A1.
